“Also recorded” adds a separate entry of the source.
Test system: HCC mouse xenograft tumor tissue (Huh-7 cells)
Assay: Staining of hepatocellular carcinoma (HCC) mouse xenograft tumor tissue sections
Conditions: 50 mg/kg IKE once daily IP for 2 days
Description: Tumor tissues were fixed in 4% paraformaldehyde (PFA) for 24 h at 4° C. followed by washing with PBS three times. The tissues were perfused in 30% sucrose for 24 h at 4° C. for cryo-protection. The samples were embedded in OCT cryostat sectioning medium, and then moved directly into a cryostat. After equilibration of temperature, frozen tumor tissues were cut into 5 μm thick sections. Tissue sections were mounted on to poly-L-lysine coated slides by placing the cold sections onto warm slides. Slides were stored at −80° C. until staining. For staining, slides were warmed to room temperature followed by washing with PBS twice. A hydrophobic barrier pen was used to draw a circle on each slide. The slides were permeabilized with PBS with 0.4% Triton X-100 (PBT) twice before non-specific-binding blocking by incubating the sections with 10% goat serum (ThermoFisher 50197Z) for 30 min at room temperature. […] All images were captured on a Zeiss LSM 800 confocal microscope at Plan-Apochromat 63×/1.40 Oil DIC objective with constant laser intensity for all analyzed samples. The intensity above threshold of the fluorescent signal of the bound antibodies was analyzed using NIH ImageJ software (ImageJ, RRID:SCR_003070). Data were expressed as fold change comparing with the vehicle. […]

B1: 3F3-FMA: Murine monoclonal IgG1 raised against ferroptotic membrane fractions; antigen is transferrin receptor protein 1 (TfR1) (antibody, V domains shown)
VH: EVLLQQSGTELVRPGALVKLSCKASGFNIQDLYIHWVKQRPEQGLEWIGWIDPETDNTIYDPKFQGKASITADTSSNTAYLQLSSLTSEDTAMYYCSTGLLQWYFDVWGAGTAVTVSS
VL: DIVMTQSPSSLAMSIGQKVTMRCKSSQSLLNSYNQKNCLAWYQQKPGQSPKLLLYFVSTRESGVPDRFIGSGSGTDFTLTISSVQAEDLADYFCQQHYSTPLTFGAGTKLELK
antibody staining intensity in IKE-treated vs vehicle tumor tissue: increased intensities; also recorded: difference in intensities

From patent publication US20230140200A1, “COMPOSITIONS AND METHODS FOR DETECTING CELLS UNDERGOING FERROPTOSIS USING AN ANTIBODY” (THE TRUSTEES OF COLUMBIA UNIVERSITY IN THE CITY OF NEW YORK, priority 2020, published 2023)
